Measured values published in the supplement of paper PMC9112550, “Optimization of the antimicrobial peptide Bac7 by deep mutational scanning” (BMC Biology, 2022).
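Further: peptides expressed intracellularly from a pBAD plasmid library in pooled LB shake-flask culture, induced with 0.3% L-arabinose, DNA abundance read by NGS, three biological replicates, DESeq2 with apeglm shrinkage.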

The sequences below were run on Escherichia coli TOP10 (assay: shrunken log2 fold change of peptide-encoding DNA abundance (4.5 h post-induction vs induction); higher = less antimicrobial activity (less host growth inhibition)). Conditions: time post-induction: 4.5 h; library: site-saturation at positions 5, 18, 19, 20.
For RRIRERPPRLPRPRPRPYQPPRP, the “shrunken log2 fold change” value was 0.0223. With RRIRWRPPRLPRPRPRPRSWPRP the “shrunken log2 fold change” value was 1.07. In the case of RRIRHRPPRLPRPRPRPYKGPRP, the “shrunken log2 fold change” value is reported as -0.33. With RRIRMRPPRLPRPRPRPDFSPRP the “shrunken log2 fold change” value was 0.0199. With RRIRVRPPRLPRPRPRPRQQPRP the “shrunken log2 fold change” value was 0.168. For RRIRWRPPRLPRPRPRPKMNPRP, the “shrunken log2 fold change” value was 0.0146. For RRIRCRPPRLPRPRPRPINYPRP, the “shrunken log2 fold change” value was -0.271. In the case of RRIRERPPRLPRPRPRPRCGPRP, the “shrunken log2 fold change” value is reported as 0.146. With RRIRCRPPRLPRPRPRPTHCPRP the “shrunken log2 fold change” value was 0.363. For RRIRYRPPRLPRPRPRPPYSPRP, the “shrunken log2 fold change” value was -0.45. For RRIRYRPPRLPRPRPRPPVMPRP, the “shrunken log2 fold change” value was -0.355. RRIRFRPPRLPRPRPRPCPIPRP was tested, and the “shrunken log2 fold change” value was -0.488. In the case of RRIRPRPPRLPRPRPRPWWCPRP, the “shrunken log2 fold change” value is reported as -0.258. With RRIRNRPPRLPRPRPRPTDLPRP the “shrunken log2 fold change” value was -0.228. In the case of RRIRVRPPRLPRPRPRPNKHPRP, the “shrunken log2 fold change” value is reported as -0.189. RRIRYRPPRLPRPRPRPFNCPRP was tested, and the “shrunken log2 fold change” value was -0.362. In the case of RRIRHRPPRLPRPRPRPQNLPRP, the “shrunken log2 fold change” value is reported as -0.00783. RRIRMRPPRLPRPRPRPGLTPRP was tested, and the “shrunken log2 fold change” value was 1.02. RRIRIRPPRLPRPRPRPTTPPRP was tested, and the “shrunken log2 fold change” value was 0.552. For RRIRMRPPRLPRPRPRPFCLPRP, the “shrunken log2 fold change” value was -0.15. For RRIRIRPPRLPRPRPRPVGAPRP, the “shrunken log2 fold change” value was 0.475. In the case of RRIRARPPRLPRPRPRPGRMPRP, the “shrunken log2 fold change” value is reported as 0.237. RRIRRRPPRLPRPRPRPQASPRP was tested, and the “shrunken log2 fold change” value was 0.0463. For RRIRARPPRLPRPRPRPDMEPRP, the “shrunken log2 fold change” value was -0.0243. For RRIRARPPRLPRPRPRPIYTPRP, the “shrunken log2 fold change” value was -0.387. In the case of RRIRSRPPRLPRPRPRPTWQPRP, the “shrunken log2 fold change” value is reported as 0.0157. With RRIRVRPPRLPRPRPRPRSRPRP the “shrunken log2 fold change” value was 0.227. RRIRIRPPRLPRPRPRPCYEPRP was tested, and the “shrunken log2 fold change” value was -0.303. In the case of RRIRWRPPRLPRPRPRPNGEPRP, the “shrunken log2 fold change” value is reported as -0.0407. RRIRYRPPRLPRPRPRPTKLPRP was tested, and the “shrunken log2 fold change” value was -0.683. With RRIRYRPPRLPRPRPRPYTSPRP the “shrunken log2 fold change” value was -0.533. RRIRARPPRLPRPRPRPKHSPRP was tested, and the “shrunken log2 fold change” value was 0.0875. For RRIRPRPPRLPRPRPRPWDHPRP, the “shrunken log2 fold change” value was -0.106. RRIRARPPRLPRPRPRPFFSPRP was tested, and the “shrunken log2 fold change” value was -0.0124. With RRIRERPPRLPRPRPRPYYYPRP the “shrunken log2 fold change” value was -0.732. In the case of RRIRERPPRLPRPRPRPGREPRP, the “shrunken log2 fold change” value is reported as 0.241. With RRIRSRPPRLPRPRPRPDKGPRP the “shrunken log2 fold change” value was -0.108. RRIRQRPPRLPRPRPRPDTSPRP was tested, and the “shrunken log2 fold change” value was 0.00601. With RRIRSRPPRLPRPRPRPPHMPRP the “shrunken log2 fold change” value was -0.0602. In the case of RRIRSRPPRLPRPRPRPEWDPRP, the “shrunken log2 fold change” value is reported as 0.365. RRIRLRPPRLPRPRPRPMRPPRP was tested, and the “shrunken log2 fold change” value was 1.44. For RRIRARPPRLPRPRPRPPRPPRP, the “shrunken log2 fold change” value was 1. For RRIRMRPPRLPRPRPRPMTIPRP, the “shrunken log2 fold change” value was -0.329. RRIRLRPPRLPRPRPRPMAEPRP was tested, and the “shrunken log2 fold change” value was 0.141. RRIRSRPPRLPRPRPRPPIYPRP was tested, and the “shrunken log2 fold change” value was -0.0803. RRIRVRPPRLPRPRPRPTCRPRP was tested, and the “shrunken log2 fold change” value was 0.147. RRIRHRPPRLPRPRPRPPVQPRP was tested, and the “shrunken log2 fold change” value was -0.0798. For RRIRCRPPRLPRPRPRPTWKPRP, the “shrunken log2 fold change” value was -0.114. RRIRVRPPRLPRPRPRPHPVPRP was tested, and the “shrunken log2 fold change” value was -0.201. With RRIRTRPPRLPRPRPRPYNHPRP the “shrunken log2 fold change” value was -0.138. With RRIRERPPRLPRPRPRPAHVPRP the “shrunken log2 fold change” value was -0.0768. RRIRRRPPRLPRPRPRPYQFPRP was tested, and the “shrunken log2 fold change” value was 0.0273. For RRIRRRPPRLPRPRPRPCSHPRP, the “shrunken log2 fold change” value was -0.18. With RRIRRRPPRLPRPRPRPCPQPRP the “shrunken log2 fold change” value was 0.0779. RRIRGRPPRLPRPRPRPLNNPRP was tested, and the “shrunken log2 fold change” value was -0.109. With RRIRARPPRLPRPRPRPYPEPRP the “shrunken log2 fold change” value was -0.181. For RRIRIRPPRLPRPRPRPYNHPRP, the “shrunken log2 fold change” value was -0.138. For RRIRLRPPRLPRPRPRPYNQPRP, the “shrunken log2 fold change” value was -0.693. For RRIRTRPPRLPRPRPRPLNAPRP, the “shrunken log2 fold change” value was -0.264. With RRIRTRPPRLPRPRPRPRGCPRP the “shrunken log2 fold change” value was 0.261. For RRIRSRPPRLPRPRPRPYPGPRP, the “shrunken log2 fold change” value was -0.199. For RRIRQRPPRLPRPRPRPISWPRP, the “shrunken log2 fold change” value was -0.12. In the case of RRIRMRPPRLPRPRPRPIEPPRP, the “shrunken log2 fold change” value is reported as 0.0361. RRIRCRPPRLPRPRPRPIGKPRP was tested, and the “shrunken log2 fold change” value was -0.188. With RRIRRRPPRLPRPRPRPGREPRP the “shrunken log2 fold change” value was -0.0226. In the case of RRIRGRPPRLPRPRPRPDLHPRP, the “shrunken log2 fold change” value is reported as 0.655. With RRIRPRPPRLPRPRPRPRYAPRP the “shrunken log2 fold change” value was 0.0891. RRIRSRPPRLPRPRPRPHTAPRP was tested, and the “shrunken log2 fold change” value was -0.175. For RRIRSRPPRLPRPRPRPGCVPRP, the “shrunken log2 fold change” value was 0.247. For RRIRCRPPRLPRPRPRPIIHPRP, the “shrunken log2 fold change” value was -0.799. In the case of RRIRPRPPRLPRPRPRPAYWPRP, the “shrunken log2 fold change” value is reported as 0.212. With RRIRYRPPRLPRPRPRPCPFPRP the “shrunken log2 fold change” value was -0.0574. In the case of RRIRSRPPRLPRPRPRPMCLPRP, the “shrunken log2 fold change” value is reported as 0.038. RRIRTRPPRLPRPRPRPIVWPRP was tested, and the “shrunken log2 fold change” value was -0.0862. With RRIRTRPPRLPRPRPRPRAWPRP the “shrunken log2 fold change” value was 0.132.
